One protein from publication PMC6773797, “Identification and molecular characterization of a psychrophilic GH1 β-glucosidase from the subtropical soil microorganism Exiguobacterium sp. GXG2” (AMB Express, 2019) can be followed below.

Substrate in the series: O=[N+]([O-])c1ccc(O[C@@H]2O[C@H](CO)[C@@H](O)[C@H](O)[C@H]2O)cc1
Description: purified protein. The series is classed as biochemical, Exiguobacterium sp. GXG2. The conditions noted are these: pH 7.0, 35 °C, 1–10 mM substrate.

B1: BglG (Exiguobacterium sp. GXG2) (protein)
chain: MKMPKDFLFGAASASYQVEGAWNVDGKGVSNWDVFSKIPGKTFEATNGDVAIDHYHRYKEDIGLMAEMGLESYRFSISWPRIFPNGTGEVNEKGLEFYNNVIDECLKHGIVPFVTLYHWDLPQVLEEQGGWRSPETADAFVRFAKTCFEAFGDRVRNWITFNETVIFCSLGYLTGAHPPGITGDAKAYFQTTHNVFVAHARAVEAFKEAGYEGEIGITHVFNPAFSIDEAPENKQAEVHANEYATHWFYDPILKGEYPAYVVKDLEKQGLLPEWTEEELDLLKRTAPLNDFIGLNYYCPQRVMKNDSALVMAGGRENSTGRPGNPSFDGVYKTVLMDDKVYTKWGWEIAPDAFLEGMRMLQARYGDIKIYITENGLGDEDPIVGEEIMDTPRIEYIESHLRAVKRAVEEGINVSGYYAWSVIDLLSWLNGYKKQYGFIYVDHANGLARKKKQSFHWYQEIIATRAAEL
notes: six-histidine tag kept, about 58 kDa on SDS-PAGE; pETBlue-2, E. coli Tuner(DE3)pLacI; Ni-NTA purified
Take B1: the Km (usually the substrate concentration at which the rate is half of its maximum) was 1100 µM; the kcat (as a rule, the number of substrate molecules converted per active site and unit of time at saturation) stood at 12.7 s⁻¹.
